Experimental data from the domain aggregation screens of Martell et al. (2025).

experiment: soluble fraction after stress (log2 fold change); higher = more stays soluble; pooled small domains, quantitative proteomics; details: stress: pH 4
Summary of the method: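 How much of each domain stays soluble after acid stress, expressed as a fold change, is used to gauge aggregation propensity. Pooled custom libraries of small domains underwent pH 4 stress before high-throughput quantitative proteomics. A higher log2 value means more of the domain stayed soluble.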

| Sequence | soluble fraction (log2) |
| --- | --- |
| HMPVNGEFIERIKVMVLENKAKGKKERLTKTRMHQLLQEEGYKGSYSAFTHQVRIIEEELGVNQKEAH | 0.235 |
| HMVQARDQNIEEGRQLVLRELDRLDLVNESLTDVAADMNMKSVEDMYAAIGAGDLRVGQVVHAVLKRAD | -0.218 |
| HMNVPFGFDEVNGKLVKNEEEQAIISEIKSLKNKGLSLRKIAEALNGRGIATKNGKAWTAVQIQRIA | 0.22 |
| HMGTTAWISTKTANGSVNIRTGPGTGYGVIGWALNGDKLEVLSRGTSWHYVKLVKNGKIGYVSASYVSFTQ | -0.399 |
| HMLENYEGFKQKILKLTGIDLSSYKERQMRRRIDSLIHRNNYDDYDEYFKALTQNSNLYDEFINYLTI | -0.424 |
| HMTVSADQTTADAVIKLIDAIGTVSKNSGSAISAARSGYDALTDAQKKLVTNYNKLTQAEQVFSSLS | -0.165 |
| HMGIPIEAYHESLHRHYIDLWELLDTGKETLIDAEGNEVDKIHLLNAIRFNVNGMLHELLKE | -1.48 |
| HMQARSQQTIQTLFKAAAQILDKEGEAGLSTNKVAAAAGFSIGTLYQYFPSKEVLIQAMAAR | 0.0662 |
| HMIDMQIDTARFGTLGVDDDKIITFPKGLPGFEDERRFFLMDHSGSSKIKWLHSADNPGLALV | -0.541 |
| HMDLPATVPNLEGLTEVTARNKLTVAGLSLGEVKEVESDKEKGTVVGQSIAYGKRVTKGTKVDIEISSGK | 0.318 |
| HMTNTWNNIVERNDLFFKKFTNTPFNGKIETYWPNGNLKETGIITDGKKDNLWEYYYENGNPKEVEF | -0.0781 |
| HMEDVTLSLVVGEDLDGERLDVFLTWKLDRTRSQVQALIRDGKVRLEQGQRARPSMVVRSGMGISVSLEPR | -1.11 |
| HMIEKGSDALEKELRKNNLSINEFLTNKNIDIILDELKLKDIDDLYVNIALGKYTPNQIIKIVNK | -0.61 |
| HMGGKWSMPIIYILSKGKMRFKELERSVEGINTRMLVKELKNMEANGIVTREVFPTVPPTVEYALT | -0.178 |
| HMTVTLTTLRNGSTGAQVKTLQRLLSAMDYYNGETDGKFGISTAAAVKAFQRAKRLTVDGIVGKNTWTALL | -0.0337 |
| HMTMQTAEQESRLEQKLIDLSVGIDRFEGYSRPHGQLIASIADRIGTRLGMAAHDRFYMQQAAL | -0.0547 |
| HMIPTDPNGDLIKILYTSDQINELYARAKLNDVEDLFLDWTKNVLGESNFEETGPTKNEYLIPQ | -0.961 |
| HMIELTTDYKKRVVEALVSARENYSGSDSDFARKWSIDKTVYSRLKKGYQEGLLSVGKYIELGMELNVSSR | 0.0127 |
| HMTKAGVDAWTRGDYAAAVKEWQAQAAKGDADAIFNLGQAFKLGKGVPQDLIKAEQLFGQAAA | -0.466 |

| Sequence | soluble fraction (log2) |
| --- | --- |
| HMESYDSEIKEVLDLAGKGRWEEAQTKADALREMAPNNSLVERLHGWVLQAAHQRREQALENDIRE | 0.101 |
| HMGLSAEAARMAIQDAGLSKEDFAQKLGIKKVERVVEWEAGTSKPTFVQAQKIANATNIPFGYLFLVNPPK | 0.0939 |
| HMVVSDSAEIDKIVQDVIAANPKAIEDFKSGKTNVTGWLMGQVMKLSHGKANPKQATEILNKYLSK | 0.18 |
| HMGTTMLEVPNFVGEVFKEIDPEKYPNLRLVDSDYTYSNEYEAGKVISQDPVARTQVAEGSTVKLVIS | -0.249 |
| HMAGFGDSLEKMSDAVEALKLLMSTEDARNDQNIQKIARELKDVFNKYRTHLRKSYPDQYDRIKSTL | -0.62 |
| HMIGIGSDVPNKLKPAIYSFGLVAVGEKSVIPDGVQIGKNTAVSGVTSKEDYPDGVLESGETLIKA | 0.22 |
| HMAETLLWADAAQEGLNRIVAAQPILVRISAAKRLRDASEQAAKAAGVSTVEIGHVQHASESLQFGDA | -0.0823 |
| HMLKRLTVEFSAEMPKKMTSEQKEELASVLSEDPRPAYQNDENREYGLDYGEFSVKFKVKDGVLTVTSVTE | 0.226 |
| HMKDLTIRQQQFLNYIKDHLSLTGFPPTRSDIANEMGFKSPNAAEDHLRALARKGAIEIVPGTSRGIRLP | 0.0783 |
| HMDPSVTGLLTRLGISPQTAQELAGQYEEPYILEKIAIVEAHPEYVKNAAGFVITALQEDWKD | -1.37 |
| HMNPNEVQIPDLVNKTEDEAEQILKDLKLKLVVKSEEYNENIEKGKIISQDPPYQENYTIKEHSEISIVIS | -0.415 |
| HMRKTLASTAYDSIKAGIVSGEINNNLLLSENTLAKILNMSRTPIREAIKRLEAESYLKSVDGVGLIVQE | -0.314 |
| HMAASGTVNSGGDPLRVRADPNTSSQILTKLSDGTQVEVLEQAENGWYKIAHEGISGFVSGEYLVVH | -0.356 |
| HMSNLVEVPAVIGRMKEDAITMLISAGLEPAVTYDEYPLVKENLVADQSVAPGQKVEKGSFVTITVSRS | 0.22 |
| HMAITVPEGATLSDAAVLLKQAGAVRSADAFLTRAKVFGGSTPIKAGEFVIPVQASNKDILAILQGGK | -0.193 |
| HMEWTVEKQAAATLNAWMRKNSEMTSEKKVAVAAGIGPATVNRIMKAEVSTTIGVLSSLARAFGHEAYEMI | 0.114 |
| HMKKNTEALDYYKKAGANFPEDEVISSEYLFRAAQLQEVLGKTDEAVAIYKDIKAKYPTTEIGLNVDKFIL | -0.181 |
| HMKSEMYIDLSNALLKMSERDKELLTYRYTMEMSSKEISQITGIKESNVNSYIRRAREKLLKIFNAMNK | 0.123 |
| HMVSTEDEISDKLLLDFALEKLSENEKQIVKLRYYNSLTQSKTAEILNMTQVQVSRSEKKILAKLRGII | 0.0807 |
